Measured values from PMC7067766, “A receptor for the complement regulator factor H increases transmission of trypanosomes to tsetse flies” (Nature Communications, 2020).

T1: bovine complement factor H from serum (bovine (endogenous in bovine serum), UniProt Q28085 19-1236)
T1 construct: complement factor H, bovine, native serum protein of 145 kDa; also called FH; bovine FH; source: endogenous, bovine serum (Sigma-Aldrich); purified from adult bovine serum (FHR-agarose, eluted with glycine-HCl pH 2.5)
T1 sequence: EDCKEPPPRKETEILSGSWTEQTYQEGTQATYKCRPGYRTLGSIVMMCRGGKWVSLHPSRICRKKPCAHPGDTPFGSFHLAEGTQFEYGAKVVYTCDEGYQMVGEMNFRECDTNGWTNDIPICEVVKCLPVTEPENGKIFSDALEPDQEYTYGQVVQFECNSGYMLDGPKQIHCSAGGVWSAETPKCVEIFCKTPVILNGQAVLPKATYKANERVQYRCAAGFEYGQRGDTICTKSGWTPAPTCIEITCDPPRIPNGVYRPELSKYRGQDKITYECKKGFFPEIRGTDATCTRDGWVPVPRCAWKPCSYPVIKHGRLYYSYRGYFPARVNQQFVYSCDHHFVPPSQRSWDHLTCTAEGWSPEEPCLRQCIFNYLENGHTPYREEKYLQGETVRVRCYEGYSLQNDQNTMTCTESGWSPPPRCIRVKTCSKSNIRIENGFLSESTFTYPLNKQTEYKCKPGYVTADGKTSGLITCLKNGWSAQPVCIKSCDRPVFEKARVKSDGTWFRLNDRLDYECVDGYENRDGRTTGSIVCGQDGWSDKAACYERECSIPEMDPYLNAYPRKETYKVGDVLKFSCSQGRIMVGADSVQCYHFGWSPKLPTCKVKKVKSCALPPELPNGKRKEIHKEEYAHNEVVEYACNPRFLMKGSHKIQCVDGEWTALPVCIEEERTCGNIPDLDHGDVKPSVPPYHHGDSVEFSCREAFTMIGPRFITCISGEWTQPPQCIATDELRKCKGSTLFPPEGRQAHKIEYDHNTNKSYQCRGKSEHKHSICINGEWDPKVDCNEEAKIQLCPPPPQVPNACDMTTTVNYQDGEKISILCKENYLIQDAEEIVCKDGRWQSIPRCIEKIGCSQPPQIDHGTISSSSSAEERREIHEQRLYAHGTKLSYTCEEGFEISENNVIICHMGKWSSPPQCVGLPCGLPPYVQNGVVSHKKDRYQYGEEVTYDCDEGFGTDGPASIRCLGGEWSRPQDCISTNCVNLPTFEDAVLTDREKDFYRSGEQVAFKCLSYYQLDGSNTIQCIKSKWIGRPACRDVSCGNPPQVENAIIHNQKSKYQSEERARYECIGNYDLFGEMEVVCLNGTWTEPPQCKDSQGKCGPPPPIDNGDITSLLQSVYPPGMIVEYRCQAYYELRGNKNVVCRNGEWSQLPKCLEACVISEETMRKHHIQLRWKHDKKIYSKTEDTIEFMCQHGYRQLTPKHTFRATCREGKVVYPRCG

T2: recombinant bovine FH, complete (residues 18-1236) (bovine, UniProt Q28085 18-1236)
T2 construct: complement factor H, bovine, complete (residues 18-1236); pDest12; CD33 signal peptide, then 10xHis, AviTag, GSGSGS linker and a TEV site before the ORF; also called full-length bovine FH; recombinant FH; source: G22 CHO cells, secreted, purified (Ni-NTA)
T2 sequence (looked up): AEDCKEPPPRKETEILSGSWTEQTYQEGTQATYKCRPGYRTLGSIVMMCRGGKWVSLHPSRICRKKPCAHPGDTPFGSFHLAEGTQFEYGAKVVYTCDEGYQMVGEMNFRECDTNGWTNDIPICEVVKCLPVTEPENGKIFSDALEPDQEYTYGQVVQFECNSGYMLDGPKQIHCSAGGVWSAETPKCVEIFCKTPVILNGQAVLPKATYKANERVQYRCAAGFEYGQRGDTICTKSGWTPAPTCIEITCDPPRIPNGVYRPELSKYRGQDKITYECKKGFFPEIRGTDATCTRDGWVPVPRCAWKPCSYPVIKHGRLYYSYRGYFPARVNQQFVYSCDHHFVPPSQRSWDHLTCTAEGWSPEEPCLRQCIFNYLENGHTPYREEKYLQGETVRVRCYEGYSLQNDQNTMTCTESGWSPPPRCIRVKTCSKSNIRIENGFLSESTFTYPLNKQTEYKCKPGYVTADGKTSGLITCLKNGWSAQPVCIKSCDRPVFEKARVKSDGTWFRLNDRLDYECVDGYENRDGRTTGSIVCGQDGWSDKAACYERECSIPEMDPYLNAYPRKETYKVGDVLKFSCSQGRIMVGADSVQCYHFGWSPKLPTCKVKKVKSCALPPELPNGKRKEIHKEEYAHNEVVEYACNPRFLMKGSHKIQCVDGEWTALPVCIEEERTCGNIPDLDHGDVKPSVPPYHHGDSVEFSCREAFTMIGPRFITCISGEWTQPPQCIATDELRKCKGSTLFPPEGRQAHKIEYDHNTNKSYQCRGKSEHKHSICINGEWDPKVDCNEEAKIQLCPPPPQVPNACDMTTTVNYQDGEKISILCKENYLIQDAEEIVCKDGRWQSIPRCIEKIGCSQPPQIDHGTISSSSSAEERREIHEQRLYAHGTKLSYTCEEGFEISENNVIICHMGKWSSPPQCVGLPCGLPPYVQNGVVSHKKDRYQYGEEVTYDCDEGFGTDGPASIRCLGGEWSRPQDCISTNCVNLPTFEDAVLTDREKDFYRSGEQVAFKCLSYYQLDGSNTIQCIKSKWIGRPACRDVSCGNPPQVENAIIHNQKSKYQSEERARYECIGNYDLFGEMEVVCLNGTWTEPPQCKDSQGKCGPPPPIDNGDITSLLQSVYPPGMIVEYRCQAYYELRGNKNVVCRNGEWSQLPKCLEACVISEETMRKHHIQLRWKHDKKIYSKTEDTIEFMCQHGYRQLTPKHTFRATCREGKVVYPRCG

B1: bovine FH domains 4-5-6 (residues 207-385) (domain or fragment, UniProt Q28085 207-385, looked up)
chain: EIFCKTPVILNGQAVLPKATYKANERVQYRCAAGFEYGQRGDTICTKSGWTPAPTCIEITCDPPRIPNGVYRPELSKYRGQDKITYECKKGFFPEIRGTDATCTRDGWVPVPRCAWKPCSYPVIKHGRLYYSYRGYFPARVNQQFVYSCDHHFVPPSQRSWDHLTCTAEGWSPEEPCLR
notes: complement factor H, bovine, domains 4-5-6 (residues 207-385); pDest12; CD33 signal peptide, ORF, C-terminal GSGSGS linker, AviTag and 10xHis; source: G22 CHO cells, secreted, purified (Ni-NTA)
B2: mouse FH domains 4-5-6 (residues 207-387) (domain or fragment, UniProt P06909 207-387, looked up)
chain: EILCTPPRVENGDGINVKPVYKENERYHYKCKHGYVPKERGDAVCTGSGWSSQPFCEEKRCSPPYILNGIYTPHRIIHRSDDEIRYECNYGFYPVTGSTVSKCTPTGWIPVPRCTLKPCEFPQFKYGRLYYEESLRPNFPVSIGNKYSYKCDNGFSPPSGYSWDYLRCTAQGWEPEVPCVR
notes: complement factor H, mouse, domains 4-5-6 (residues 207-387); pDest12; CD33 signal peptide, ORF, C-terminal GSGSGS linker, AviTag and 10xHis; also called mouse domains 4-5-6; source: G22 CHO cells, secreted, purified (Ni-NTA)
B3: C-terminally biotinylated FHR (residues 25-249, AviTag) (receptor)
chain: NDNLEAELEQTKALCEVAKQLRKLPLLTEERRFEAVGALEESKKAAKEGKKAAKRAEAGAVGGTSEQQQAAKRAREAATVAYEASVRAEAAAMEVKRFARALDSFESEYESVFSGLLRGAAEHGGNETIKQLAKECATAVADDVTPEALTRAAHNLRGLYMQDFAEEYLQEANEAANKLEELQKATAETVRAADAADDAKSEAQEEAAQFPEIDDDDSDEDKEDE
modifications: biotin on the C-terminal AviTag
notes: T. brucei FHR, Tb927.5.4020, residues 25-249, synthetic gene optimized for E. coli in pET15b; TEV site after the His tag; GSGSGSS linker between FHR and the AviTag; also called FHR WT; WT FHR; source: E. coli BL21(DE3), purified (Ni-NTA), biotinylated with BirA; not shown: His6, N-terminal, cleaved; AviTag, C-terminal, kept
B4: bovine FH domain 5 (residues 264-323), as used in SPR (domain or fragment, UniProt Q28085 264-323, looked up)
chain: EITCDPPRIPNGVYRPELSKYRGQDKITYECKKGFFPEIRGTDATCTRDGWVPVPRCAWK
notes: complement factor H, bovine, domain 5 (residues 264-323); N-terminal tags, a TEV site and an extra serine-glycine linker before domain 5; also called domain 5 alone; source: G22 CHO cells, secreted, purified (Ni-NTA)
B5: human FH domains 4-5-6 (residues 207-387) (domain or fragment)
chain: not shown
notes: complement factor H, human, domains 4-5-6 (residues 207-387); pDest12; CD33 signal peptide, ORF, C-terminal GSGSGS linker, AviTag and 10xHis; also called human domains 4-5-6; source: G22 CHO cells, secreted, purified (Ni-NTA)

How the values were obtained:
Details in all cases: both partners purified
[1] = target: B3; assay: SPR; biotinylated FHR or mutant on a streptavidin chip (Biacore T-100/T-200), FH proteins flowed over in twofold dilutions; 20 °C, 10 mM HEPES, 150 mM NaCl, 0.005% Tween-20 pH 7.5; kinetic fit: two-state model (bovine FH) or 1:1 model (bovine domains 4-5-6 and 5)
[2] = target: B3; assay: SPR; biotinylated FHR or mutant 2 on a streptavidin chip, mouse or human FH domains 4-5-6 flowed over; 20 °C, 10 mM HEPES, 150 mM NaCl, 0.005% Tween-20 pH 7.5; steady-state analysis
[3] = target: T1, bovine complement factor H from serum; assay: SPR; biotinylated FHR or mutant on a streptavidin chip (Biacore T-100/T-200), FH proteins flowed over in twofold dilutions; 20 °C, 10 mM HEPES, 150 mM NaCl, 0.005% Tween-20 pH 7.5; kinetic fit: two-state model (bovine FH) or 1:1 model (bovine domains 4-5-6 and 5)
[4] = target: T2, recombinant bovine FH, complete …; assay: as above

Binder | Kd [1] | Kd [2] | other results
B1 | 167 nM |  | 
B2 |  | 12 µM | 
B3 |  |  | Kd [3]: 153 nM; Kd [4]: 114 nM
B4 | 562 nM |  | 
B5 |  | 8.7 µM | 
